assay: soluble on expression in E. coli; label from the status in PepcDB or PDB records

Soluble on expression in E. coli, soluble:
MAGDYSYDAVKREYVIGSDMTSYAHEVFAAAKPMDIRHNDLPQPDSVIDVTVSTTEWPEGDSNYPINPKLVFTNHSNVAIPGGSTIEFLMPTSSGDIVKDWSGAGLKVIESGHTGSNFSVNGEKKLFHKVAVTLRSTETIPAGGEYSVDMVYYTPVSGVANGVRFIVGNETVGLKKDFPTLPALEHHHHHH
SYTLPSLPYAYDALEPHFDKQTMEIHHTKHHQTYVNNANAALESLPEFANLPVEELITKLDQLPADKKTVLRNNAGGHANHSLFWKGLKKGTTLQGDLKAAIERDFGSVDNFKAEFEKAAASRFGSGWAWLVLKGDKLAVVSTANHDSPLMGEAISGASGFPIMGLDVWEHAYYLKFQNRRPDYIKEFWNVVNWDEAAARFAAKK
MSLKVYITYGTADFLKTIVQKHPSENILLMQGQENAILIHETNGDTVFQAPHAYEVIDQVGEIKHPGFAVLNNIAVTQEGRPLFENRFKNRAGKVENEPGFEAIRVLRPLDSDTYVILTLWETESAFQDWQQSGSYKEAHKKRDTSAGIDTTSIFSRPSYVTTYFAVEEGGSHHHHHH
VKTILFFILIFNSQYMSKRIGVAVVGLGSIGKTHVKALKDLEKETEFVKLVAVVDQIKAIAEKIGSEYGTPYYTTIDEVLRNSEVDVISIATPSYLHAPQAILAIEYGKHVIVEKPMATTLAGAREMVSRAERNEVKLGVIFQERYAPDIRRLKNDILKELGRIYLIESELKWYRDMKGYYKRDEIARSWRGMWNTEGGGVMTNQGIHTIDLMIWLNGEVEEVSGFVDNLTHDGIEVEDTAVAIMRYKNGALGTISQTVSMKPTTYQYRKIRVNGSNGFVEITDGSLSTVAIEGKIEESKSSVEYKKETIAQPGNLHKELLRDFLRALSEDNDFPINGKEGMKSLEVIKAVYLSSVNRQVVKLPLDVRIVV
MRRAILWFVALAIASVLAQQSRPASDPQVVEAARKEGRLIIYSSTDQSSAQALLDDFRKLYPFIQIEYNDLGTQAIYDRFVSETAAGASSADLLWSSAMELQVKLASEGYALPYDSPEAKNWPANARLGNLAYSTTLEPAVVVYNKRFLKPEEVPTTREGLARLLQEPRMRGRVATWDPERSAVGFTILKADYDRFPAFQELARAFGKAQAALYSSTGAAFEKVISGEHYLAYGFFGSYALLRQRTVKDLGIAYLTDGTVAIQRVAFINKRAAHPNAAKLFLDYLLSLRGQNLMAYTALIFARRETVVGEATPQALYKAVGGKDKVYAIPVSTEILKNLDPAERMRFLTFWRQAVRGQ
MNDRLCFEVHDNKGYFVFPDTWFGPLLGEFEEVLDAYDADEISETSYINKLRRLAQREPDFIDIHAHLAYAFLEQNAPRKALNAALKGLAAGNRIIPESFCGEIIWMHPENRPYLRALYAAILANVHLQRHQDAVMLTDKILAYNPEDNQGARWLLGSELLRTGDHERAFSVLKEHADEFSPYWYELGLLHFLNGEHVKAATAFRHGFATNTYIAEMLCGNLHPFPLAVWHDFSGSLDTAEDYYATYSPLWGQYPEALLFVNWLYNHSSVLHERSEIIKCAEMLIQEDDFEICESILRQQEHLWKRIDKTLSEEIVQKCRNMNGEYIWPWILPFSAAGMKHSSIQYQMAGDPLEHHHHHH
MWPLALVIASLTLALSGGVSQESSKVLNTNGTSGFLPGGYTCFPHSQPWQAALLVQGRLLCGGVLVHPKWVLTAAHCLKEGLKVYLGKHALGRVEAGEQVREVVHSIPHPEYRRSPTHLNHDHDIMLLELQSPVQLTGYIQTLPLSHNNRLTPGTTCRVSGWGTTTSPQVNYPKTLQCANIQLRSDEECRQVYPGKITDNMLCAGTKEGGKDSCEGDSGGPLVCNRTLYGIVSWGDFPCGQPDRPGVYTRVSRYVLWIRETIRKYETQQQKWLKGPQ
MADEINEIREEQEQLAPFDPSKKKKKKKVVIQEPVEDLAESSQTEKSDSLPVNDGLESSFTGMKKKKKKPTESSLLNNESVDAGEDLDEIANDEQEGEEGIVLQQRYPWEGSERDYIYDELLGRVFNILRENNPELAGDRRRTVMRPPQVLREGTKKTVFVNFMDLCKTMHRQPDHVMQYLLAELGTSGSLDGQQRLVVKGRFAPKNFEGILRRYITDYVICLGCKSPDTILSKENRLFFLRCEKCGSQRSVAPIKTGFVARVSRRKT

Soluble on expression in E. coli, not soluble:
MSLYIETVRGKIKPEEFGVCACHEHLHIDLSRIKNDSDTALVEVALVLSDLKSFVSHGGQAIVDVTNDGMGRDVEKLVVMSEALDLHIVASTGCYKDPFIPEEKQMWTREQFAEWMIDEIMYGISGTTVKPGVIGEIGSSLNEFKPVELELFYGAIEAAKTTKLPLSTHTTLGTLAMEQIRLFDSESLPLDQVIIGHQDLNDDDEQVLKVLSTGAYVALDTIGKENYRSDEARLNSLLLFLEKGYEDQLLLSSDVTRTSHLLVHGGQGYDVVLRSFIPKLRAKGADEATIQKLLVKTHKKHLASREGHHHHHH
MFDISHMGRLLIEDPEKKLQYFTTNNLDKLSVGKVQYNLLPNEKGGIKDDVTVYMLSEIEFFLCVNAANRQKVINWLSPHLKLRDLSGELVQIALQGPKSEEIISKFYPVSDLKYYRFKVFDKTIISRTGYTGEDGFEIYVSPEEGKELFLELVKLAKPCGLGARDVLRIEAGLPLYGNELSEEITPIEVNLEKFVDFSKEFIGKEAMLKKKVKKKLFGLELTEKGIPRKGYRVFKGDREIGWISSGTYSPTLNKGIALCFVDIEERKEGNEVEIEVRGRRVRGVLRKYPFVRTPAGRYQKLEHHHHHH
MQMISRITTGISMQYGLSNGTITFDDLIPELLHFGTITPTQISAITTDKLTEIVDGINGLQRKLDSSSEQLEEQLMMFASVYEKTKGVVPGSIIPKDDVYKTQLDALKIKWSKVDSFAKGIVIFLNEMESMEGVTSDDDANIKLSDMAPHLPKFKDWTLEEYNVYAQNQHLRNIHISYPSLNLVYKAVAEFFPYKNSLDGSLLPQVQENINKLNTLAEKIKPEAPMISQLHELFLSRSLKKSVNFKIISGLLNGISDIQMIFTDLKNEWVNKTVDGQAYNLGKALNQLKTLGNNAQQVDLSIVPVEEKIFKDVSNLYQKVNSLKDLTVIVRPLIGTVTGIEIPQSAIRIPAIDVIGQLIDKMKLLSSKLAALEILVHLSKTLRSAKNTIKLEKMKNITTAAEGKLELFKKSSDFKDIYKLILPAKKAAQKLKEAPTITETVTKIQTSFGNLTTFVDDLKSFLDDIKFLENIKGIDSLKPVIEVIRDYRDPKLFKKVDLSTLIGHLPKLKSTLKVLGDYIKGIKTSKHMETEALSTFTNISVGSQVVGMATRGITNMQMMSSQTVDLKIVKELKAVIDEEMKKHQLNPSDVKNLNSLDGLEDELNRIKTAISDFKKSVKPVKSFKLSNYSGFFQDAKKVPGIKINLPAIIGSVEKLKDRLSTRRRRSASASQLDTLLSLLRSLQIYDSAKFSKAFDDSAKSLQALDTSFTAYSKATSKLQGQKGSQSPRSPGSSPTKELSFLENDGEEFKITHHQVLDWNGLNALEDHRGAGLAAMFLMKYETTAIVHCVDGVSRSAVLAGMIIGFQKIIETRGDMNVADLIDDLRKQRAMAITSGLELAFVDAGIFLLFKRMMNNFEEEYPEDLKQMLKDAVQYYKLIAGYQVQQRDNYFKKLDNMGKKQMNQKKSTEEGVDKSKEQGKDATVMKEKSPLAKVN
MGSDKIHHHHHHMYSHPTAIQTMSDGTIKQVNPFSGTEVWTVPGRGHRPLSTSQGNITPITPSDHSNTCAFCSDRYLDTPPEKARIVRDDDGWTILRGVLPDRLHDSVPAFRRVSNLFEIVSYDYWRNNYGFSMDLETTDWMQSYISTEKGREHVLATVRTKLQAAGIQDMPDDATLLPQGEAFFGGGHDLIIGQRHFVPDATQSDQLASAGTLSPDEHFAFIFFTVDALREAYQRNRYAPYVAVFQNWLKPAGASFDHLHKQLVAIDERGVHGETEIAKLRNYPNMYNEWAVDYAGQRNLIIAENDHAVCFAGFGHRYPTLEVFSRSATPEPWLQTNEEIKAMSDLIHACHAAAGPHVPCNEEWHHKPIDLDIAMPWRVMIKWRVSTLAGFEGSTKVYLNTLSPWDVRDRVVPRLYELRDSGAIDGSIRIATECSVRRNSLLYNKNLNM
MAHHHHHHMDTDKIKKRINAYNQDGIRNSALAIILCHRYEYPHLLLLQNIESQTYHLLSGKYKSWEKPREVLKKKLQKYVNQIRDMHFGTSHFNTEEKETEDPIEIGEFLGEWWKTQFNSVYLPYLPAHITRPKEYIRLYQVTLTSRCIFHLPPGFTLKALPLFDLSTCGVAIGGLTSVLSRFKLHCMVPVEE
MGSDKIHHHHHHMATYNYPEFGAGLWHFANYIDRYAVDGYGPALSTIDQINAAKEVGELSYVDLPYPFTPGVTLSEVKDALKDAGLKAIGITPEIYLQKWSRGAFTNPDPAARAAAFELMHESAGIVRELGANYVKVWPGQDGWDYPFQVSHKNLWKLAVDGMRDLAGANPDVKFAIEYKPREPRVKMTWDSAARTLLGIEDIGLDNVGVLLDFGHALYGGESPADSAQLIIDRGRLFGMDVNDNLRGWDDDLVVGTVHMTEIFEFFYVLKINNWQGVWQLDQFPFRENHVEAAQLSIRFLKHIYRALDKLDIPALQAAQEAQNPLQAQRIVQDALLSSITVSE
MGSDKIHHHHHHMDYLDKLTHLAQVRGEINIRCEFQGEWQISHQEKDAGKGIFHLIEQGECWLTLNEKQFHLKEGDVFFLPQNQPHSMHYSANKRADIPTKKSHQGLFELHQIGRGTPDLKMFCGNFYYQQDALLTASMPEYLHINLCDTPIHPLVQLFLQEAQKNDAGTKSVVDALSNVLLIYILRHAIQQNLIEQGILFALQDKRLNTALIAILQQPQNDWHIEQLAELATMSRANFIRIFQQHIGMSPGRFLTKVRLQSAAFLLKQSQQSVLAIALEVGYQSEAHFCKVFKNYYQLSPSQYRKSVSL
MSTTAEETPTQALPTQTRTLTGWGRTAPTTAQVLSTPDVEVIARAVAQVAEQNESKPAHLQRGVIARGLGRSYGDPAQNAGGLVIDMNALNRIHRIDRDTHLVEVDAGVNLDQLMKAALPFGLWVPVLPGTRQVTIGGAIGSDIHGKNHHSAGSFGNHVVSLDLLTADGKVRTLTPKGGRNDPKGALFWATIGGMGLTGIILKATIKMTPTETAYFIADGDVTQTLDETIALHSDGSESNYEYSSAWFDAIAAPPKLGRAAISRGSLAKLDQLPAKLQKNPLAFDAPQLLTFPDVFPNGLANKFNFSMIGELWFRKSGTYRDKVQNLTQFYHPLDMFGEWNRAYGSNGFLQYQFVVPTTAVEEFKAIIRDIQKSGHYSFLNVFKLFGEGNQAPLSFPIPGWNICVDFRIKPGLNEFVTELDKRVLKFGGRLYTAKDSRTTAETFHAMYPRIDEWIATRRKYDPTNVFASDMSRRLEL
SGERDQSSDTDQERKGGKHPYSSHYSSDFGSSPQSSGPSSPVNTPPCASNREKNPKRHLSDHHVRHQTVRKVSPKAIPNKKGVRVGFRSQSLNREPLRKDPDIVTKRVLSARLLKITELQNEVSELQVKLAQLLKENKALKSLQYRQEKALSKFEDAENEISQLIHRHNGEITALKERLRKSQEKERMAEKRVKDTEGELFRTKFSLQKLKKISEARHLPERDDLAKKLVSAELKLDNTEKD
MKFLTTNFLKCSVKACDTSNDNFPLQYDGSKCQLVQDESIEFNPEFLLNIVDRVDWPAVLTVAAELGNNALPPTKPSFPSSIQELTDDDMAILNDLHTLLLQTSIAEGEMKCRNCGHIYYIKNGIPNLLLPPHLV

Source: the DeepSol protein solubility set
